Assay results from patent US20120178682A1, “GB1 Peptidic Compounds and Methods for Making and Using the Same” (priority 2010, published 2012).
Positions count from the first letter of the chain named. Names may count otherwise.

B1: E01 (recombinant, His-tagged) (designed binder)
chain: MKIEEHHHHHHHHHHGGSTYKLILNGKTLKGETTTEAVDVYDAFDVFFVYAASNFSDFDDWTYDDATKTFTVTEGGSDK
B2: E01-D39F (designed binder)
chain: B1 chain with D57F
B3: E01-D39F/V22L (designed binder)
chain: B1 chain with V40L, D57F
B4: E01-D39F/S38G (designed binder)
chain: B1 chain with S56G, D57F
B5: E01-D39F/V31A (designed binder)
chain: B1 chain with V49A, D57F
B6: E01-D39F/S35E (designed binder)
chain: B1 chain with S53E, D57F
B7: E01-D39F/F40I (designed binder)
chain: B1 chain with D57F, F58I
B8: E01-D39F/D27E (designed binder)
chain: B1 chain with D45E, D57F
B9: E01-D39F/A34S (designed binder)
chain: B1 chain with A52S, D57F
B10: E01-D39F/S35R (designed binder)
chain: B1 chain with S53R, D57F
B11: E01-D39F/S35G (designed binder)
chain: B1 chain with S53G, D57F

These binders were tested against D-VEGF, synthetic D-protein form of VEGF-A(8-109) (Homo sapiens (Human)) (UniProt P15692) (assay: SPR (ProteOn XPR36), D-VEGF immobilized).
Sequence of D-VEGF, synthetic D-protein form of VEGF-A(8-109) (Homo sapiens (Human)) (P15692 214-315 limits assumed, form in doubt): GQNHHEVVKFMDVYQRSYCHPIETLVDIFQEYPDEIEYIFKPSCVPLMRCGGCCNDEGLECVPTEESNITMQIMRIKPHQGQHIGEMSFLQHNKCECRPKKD

Row | Kd | koff | kon | Binder
1 | 3.46 nM | 0.00117 s⁻¹ | 338000 M⁻¹ s⁻¹ | B1
2 | 3.48 nM | 0.00132 s⁻¹ | 380000 M⁻¹ s⁻¹ | B2
3 | 1.14 nM | 0.00082 s⁻¹ | 719000 M⁻¹ s⁻¹ | B3
4 | 2.83 nM | 0.00131 s⁻¹ | 463000 M⁻¹ s⁻¹ | B4
5 | 2.99 nM | 0.00167 s⁻¹ | 558000 M⁻¹ s⁻¹ | B5
6 | 4.52 nM | 0.00205 s⁻¹ | 454000 M⁻¹ s⁻¹ | B6
7 | 2.29 nM | 0.00138 s⁻¹ | 602000 M⁻¹ s⁻¹ | B7
8 | 3.1 nM | 0.00158 s⁻¹ | 511000 M⁻¹ s⁻¹ | B8
9 | 4.49 nM | 0.00174 s⁻¹ | 387000 M⁻¹ s⁻¹ | B9
10 | 5.35 nM | 0.00183 s⁻¹ | 341000 M⁻¹ s⁻¹ | B10
11 | 5.4 nM | 0.00193 s⁻¹ | 358000 M⁻¹ s⁻¹ | B11

Biological target: D-VEGF, synthetic D-protein form of VEGF-A(8-109) (Homo sapiens (Human)) (UniProt P15692)
Assay: SPR (ProteOn XPR36), D-VEGF immobilized
Remark: another data set of the same source

Row | Kd | koff | kon | Binder
12 | 13.4 nM | 0.00347 s⁻¹ | 260000 M⁻¹ s⁻¹ | B1
